Data on three substances can be found in paper PMC10403523.

Broadly, the Ki is the dissociation constant of the complex between target and ligand, obtained from inhibition or displacement.

The subject of data set [1] is yeast SWI/SNF complex, Snf2 delta-AT (Saccharomyces cerevisiae). As to the kind of experiment: competition. The conditions noted are these: EMSA competition against 601 DNA; Kd EMSA: 6.7 nM DNA or nucleosome, 1.3-23 nM SWI/SNF, 4% native PAGE (79:1); Methods: prebinding 30 C, 15 min, gel in 0.5x …; binding buffer, salt and pH not. A general note: In EMSA bound probe runs differently from free probe, usually more slowly.

Data set [2] shares this test system. As to the kind of experiment: EMSA. Particulars: apparent KD, Kd EMSA: 6.7 nM DNA or nucleosome, 1.3-23 nM SWI/SNF, 4% native PAGE (79:1), Methods: prebinding 30 C, 15 min, gel in 0.5x TBE, binding buffer, salt and pH not ….

For pUC19 plasmid, in data set [1], the Ki was found to be 25 nM.

In the case of 29N59 nucleosome, the Kd in data set [2] (6.7 nM nucleosome, recombinant Xenopus laevis histone octamer) came to 20.5 nM. For the substance 235 bp 601 DNA, the Kd in data set [2] (6.7 nM DNA) was determined as 12.8 nM.
